Test results as given in patent US20260265386A1 (Chugai, published 2026).

Target: T1, human PD1 on NFAT-luc2/PD1 Jurkat Cell line (Promega, #CS187102) (human, UniProt Q15116 25-288)
T1 construct: whole, on cells; also called PD1+Jurkat cells; human PD1-expressing cell line
Assay: flow cytometry on NFAT-luc2/PD1 Jurkat cells, Ab 10 micro g/mL, detected with Goat F(ab')2 anti-Human IgG-PE
From the text: Unbound Abs were removed by washing twice with staining buffer.

T1 sequence (Q15116 25-288): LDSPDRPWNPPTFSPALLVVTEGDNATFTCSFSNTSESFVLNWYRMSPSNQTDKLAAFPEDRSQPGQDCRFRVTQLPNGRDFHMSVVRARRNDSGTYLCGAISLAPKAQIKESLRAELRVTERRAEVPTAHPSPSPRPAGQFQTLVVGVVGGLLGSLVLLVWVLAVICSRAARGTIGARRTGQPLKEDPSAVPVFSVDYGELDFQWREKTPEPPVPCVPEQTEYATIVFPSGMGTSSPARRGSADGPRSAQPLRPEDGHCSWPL

Binder | binding result
GY14 (antibody, human IgG1, kappa, V domains shown) VH: QVQLQQSGAELVRPGASVKLSCKALGDTFTDYEIHWVKQTPVHGLEWIGVIHPGSGGTVYNQKFKGKATLTADKYSSTAYMELSSLTSEDSAVYYCTREGMNTDWYFDVWGAGTTVTVSS VL: DILMTQDELSLPVSLGDQASISCRSSQTIVHTNGNTYLEWYLQKPGQSPKLLIYKVSNRFSGVPDRFSGSGSGTYFTLKISRLEAEDLGVYYCFQGSHVPYTFGGGTKLEMKR | binds
PDC0053 (antibody, human IgG1, kappa, V domains shown) VH: QQHLVESGGGLVKPGASLTLTCKASGFYFSGYYYMSWVRQAPGKGLEWIASIYSGGSGNTYYASWAKGRFTISKTSSTTVTLQMTSLTAADTATYFCARGADYTHDYPADAAAWSFDPWGPGTLVTVSS VL: DIVMTQTPASVEAAVGGIVTIKCQASQSISSYLAWYQQKPGQPPNLLIYRASTLASGVPSRFKGSGSGTQFTLTISDLEAADAATYYCQGYHFSSTSSNYGNAFGGGTEVVVKR | binds
PDA0129 (antibody, human IgG1, kappa, V domains shown) VH: QSVEESGGRLVTPGTPLTLTCTVSGFSLSSYDMSWVRQAPGKGLEYIGIISSSGSTYYASWAKGRFTISKTSTTVDLKITSPTTEDTATYFCARLGYVGYGYADIWGPGTLVTVSS VL: IEMTQTPFSVSAAVGGTVTIKCQASEDIYSLLAWYQQKPGQPPKLLIYSASTLASGVPSRFKGSGYGTEFTLTISGVQAADAATYYCQGGYYSSSADNTFGGGTEVVVKR | binds
PDA0138 (antibody, human IgG1, kappa, V domains shown) VH: QSVEESGGRLVTPGTPLTLTCTVSGFSLSSYHMCWVRQPPGKGLEYIGIISGGAITYYATWAKGRFTISITSSTTVDLKITSPTTEDTATYFCARGGGYGGGDYNFDLWGQGTLVTVSS VL: AAVLTQTPSPVSAAVGATVSISCQSSQSVYGNSELAWYQQKPGQRPKLLIFEASKLASGVPSRFSGSGSGTQFSLAISDVQADDAATYYCAGGYSSTSDTTFGGGTEVVVKR | binds
PDE0171 (antibody, human IgG1, kappa, V domains shown) VH: QSLEESGGGLVKPGASLTLTCTASGFSFSGSYYMCWVRQAPGKGLECIACIYAGSSGATYYASWAKGRFTVSKTSSTTVTLQMTSLTAADTATYFCARHTNGIGLGLWGPGTLVTVSS VL: DIVMTQTPASVSAAVGGTVSINCQASEDIENFLAWYQQKPGQPPSLLIYETSKLASGVPSRFSGSGSGTEFTLTISDLEAADAATYYCQSYDWSDSSTYDNTFGGGTEVVVKR | binds
PDA0107 (antibody, human IgG1, kappa, V domains shown) VH: QSVEESGGRLVTPGTPLTLTCTVSGFSLSRYYMSWVRQAPGKGLEWIGYIYADSGSTWYASWAKGRFTISKTSTTVDLKMTSLTTEDTATYFCARRADHDGAFDLWGPGTLVTVSS VL: AAVLTQTPSPVSAAVGGTVSISCQSSQSVYGKNELSWYQQKPGQPPKLLIYYASTLASGVPSRFSGSGSGTQFALTISGVQADDAATYYCAGGYSSSVDTTFGGGTEVVVKR | binds
GY5 (antibody, human IgG1, kappa, V domains shown) VH: QVQLQQSGPELVRPGVSVKISCKGSGHTFTDYALHWVRQSHVKSLEWIGVISSYNGITNYNQRFKGKATMTVDKSSSTAYLELARLTSEDSAIYYCSREEWDVFYYFDYWGQGTTLTVSS VL: DIMLTQSPLSLPVSLGDQASISCRSSQGIVHSDGNTYLEWYLQKPGQSPKLLIYKVSNRFSGVPDRFSGSGSGTDFILKISRVEAEDLGVYYCFQGSHVPYTFGGGTKLEIKR | binds
PDA0044 (antibody, human IgG1, kappa, V domains shown) VH: QSVEESGGRLVTPGTPLTLTCTASGFSLSGYYMSWVRQAPGKGLEWIGSISYGGSTYYASWAKGRFTISKTSTTVDLKITSPTTEDTATYFCAAGYTTNTAFDPWGPGTLVTVSS VL: AFELTQTPSSVEAAVGGTVTIKCQASQSISSYLAWYQQKPGQPPKLLIYGASNLKSGVPSRFKGSGSGTQFTLTISDLEAADAATYYCQSYYYSSSSSYSFGGGTEVVVKR | binds
PDC0037 (antibody, human IgG1, kappa, V domains shown) VH: QSVEESGGRLVTPGTPLTLTCTVSGFSLSYYAMIWVRQAPGKGLEWIGFINSYGKTYYANWAKGRFTISKTSTTVDLKMTSLTSEDTATYFCARERDNYHFNLWGQGTLVTVSS VL: AQVLTQTPSPVSAAVGGTVTISCQSSESVYNNNWLAWYQQKPGQPPKFLIYDASTLASGVPSRFSGSGSGTQFTLTISGVQADDAATYYCQGTYYSSDWYFVFGGGTEVVVKR | binds
